Patent publication US20220242944A1

Target: recombinant human PDGF-B (human) (UniProt P01127)
Test: SPR (Biacore T200), antibody captured by anti-human Fc, antigen as analyte, 25 degrees C, pH 7.4, 1:1 model

UniProt P01127, sequence (P01127 82-190 limits assumed): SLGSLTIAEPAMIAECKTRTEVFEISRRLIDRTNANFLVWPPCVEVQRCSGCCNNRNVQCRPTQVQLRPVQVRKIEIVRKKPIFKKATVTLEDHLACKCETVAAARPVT

Kd [nM]	Binder
0.0202	CPR001-GL-F1332m (antibody, V domains shown) VH: EVQLLESGGGLVQPGGSLRLSCAASGFTFSSYAMSWVRQAPGKGLEWVSYISDDGSLKYYADSVKGRFTISRDNSKNTLYLQMNSLRAEDTAVYYCAKHPYWYGGQLDLWGQGTLVTVSS VL: SYELTQPPSVSVSPGQTASITCSGDSLGSYFVHWYQQKPGQSPVLVIYDDSNRPSGIPERFSGSNSGNTATLTISGTQAMDEADYYCSAFTHNSDVFGGGTKLTVL
0.0165	CPR001GLVH/xIC17-SG181v14hk (bispecific antibody, part only; not given: IC17 control arm and constant region, V domains shown, part only) VH: EVQLLESGGGLVQPGGSLRLSCAASGFTFSSYAMSWVRQAPGKGLEWVSYISDDGSLKYYADSVKGRFTISRDNSKNTLYLQMNSLRAEDTAVYYCAKHPYWYGGQLDLWGQGTLVTVSS VL: SYELTQPPSVSVSPGQTASITCSGDSLGSYFVHWYQQKPGQSPVLVIYDDSNRPSGIPERFSGSNSGNTATLTISGTQAMDEADYYCSAFTHNSDVFGGGTKLTVL
